The values that follow come from ChEMBL document CHEMBL2074244, “Loss of ATP-dependent transport activity in pseudoxanthoma elasticum-associated mutants of human ABCC6 (MRP6)” (J Biol Chem, 2002).

As a reminder, the Km is the substrate concentration at which the rate is half of its maximum.

Substrate in series [1]: CCCCC/C=C\C\C=C/C=C/C=C/[C@@H](SC[C@@H](NC(=O)CC[C@H](N)C(=O)O)C(=O)NCC(=O)O)[C@@H](O)CCCC(=O)O
Put plainly: (§1) TP_TRANSPORTER: uptake in membrane vesicles from MRP6-expressing Sf9 cells. It is filed as functional, cell membranes, Membrane vesicle.

Substrate in series [2]: NC(CCC(=O)NC(CNCC(=O)O)CSCCN1C(=O)C=CC1=O)C(=O)O
Described as §1. In kind it is functional, cell membranes, Membrane vesicle.

B1: ATP-binding cassette sub-family C member 6 (Homo sapiens) (protein)
chain: MAAPAEPCAGQGVWNQTEPEPAATSLLSLCFLRTAGVWVPPMYLWVLGPIYLLFIHHHGRGYLRMSPLFKAKMVLGFALIVLCTSSVAVALWKIQQGTPEAPEFLIHPTVWLTTMSFAVFLIHTERKKGVQSSGVLFGYWLLCFVLPATNAAQQASGAGFQSDPVRHLSTYLCLSLVVAQFVLSCLADQPPFFPEDPQQSNPCPETGAAFPSKATFWWVSGLVWRGYRRPLRPKDLWSLGRENSSEELVSRLEKEWMRNRSAARRHNKAIAFKRKGGSGMKAPETEPFLRQEGSQWRPLLKAIWQVFHSTFLLGTLSLIISDVFRFTVPKLLSLFLEFIGDPKPPAWKGYLLAVLMFLSACLQTLFEQQNMYRLKVLQMRLRSAITGLVYRKVLALSSGSRKASAVGDVVNLVSVDVQRLTESVLYLNGLWLPLVWIVVCFVYLWQLLGPSALTAIAVFLSLLPLNFFISKKRNHHQEEQMRQKDSRARLTSSILRNSKTIKFHGWEGAFLDRVLGIRGQELGALRTSGLLFSVSLVSFQVSTFLVALVVFAVHTLVAENAMNAEKAFVTLTVLNILNKAQAFLPFSIHSLVQARVSFDRLVTFLCLEEVDPGVVDSSSSGSAAGKDCITIHSATFAWSQESPPCLHRINLTVPQGCLLAVVGPVGAGKSSLLSALLGELSKVEGFVSIEGAVAYVPQEAWVQNTSVVENVCFGQELDPPWLERVLEACALQPDVDSFPEGIHTSIGEQGMNLSGGQKQRLSLARAVYRKAAVYLLDDPLAALDAHVGQHVFNQVIGPGGLLQGTTRILVTHALHILPQADWIIVLANGAIAEMGSYQELLQRKGALMCLLDQARQPGDRGEGETEPGTSTKDPRGTSAGRRPELRRERSIKSVPEKDRTTSEAQTEVPLDDPDRAGWPAGKDSIQYGRVKATVHLAYLRAVGTPLCLYALFLFLCQQVASFCRGYWLSLWADDPAVGGQQTQAALRGGIFGLLGCLQAIGLFASMAAVLLGGARASRLLFQRLLWDVVRSPISFFERTPIGHLLNRFSKETDTVDVDIPDKLRSLLMYAFGLLEVSLVVAVATPLATVAILPLFLLYAGFQSLYVVSSCQLRRLESASYSSVCSHMAETFQGSTVVRAFRTQAPFVAQNNARVDESQRISFPRLVADRWLAANVELLGNGLVFAAATCAVLSKAHLSAGLVGFSVSAALQVTQTLQWVVRNWTDLENSIVSVERMQDYAWTPKEAPWRLPTCAAQPPWPQGGQIEFRDFGLRYRPELPLAVQGVSFKIHAGEKVGIVGRTGAGKSSLASGLLRLQEAAEGGIWIDGVPIAHVGLHTLRSRISIIPQDPILFPGSLRMNLDLLQEHSDEAIWAALETVQLKALVASLPGQLQYKCADRGEDLSVGQKQLLCLARALLRKTQILILDEATAAVDPGTELQMQAMLGSWFAQCTVLLIAHRLRSVMDCARVLVMDKGQVAESGSPAQLLAQKGLFYRLAQESGLV
For B1, the Michaelis-Menten constant (Km) is 0.6 µM in series [1] and 282 µM in series [2].
